These results are taken from article PMC6353875, “The EZH2 SANT1 domain is a histone reader providing sensitivity to the modification state of the H4 tail” (Scientific Reports, 2019).

Assay [1] deals with T1, EZH2 SRM-SANT1 (residues 141–251) (human, UniProt Q15910 141-251).
T1 construct: Enhancer of Zeste Homologue 2 (EZH2), human, residues 141-251: stimulation response motif (SRM), linker and SANT1 domain; cDNA from OpenBiosystems; Uniformly 15N-enriched for the NMR titrations; untagged in the pull-down; also called EZH2 SANT1; source: E. coli Rosetta2 (DE3) pLysS, purified (glutathione agarose, PreScission cleavage, ion exchange, size exclusion); not shown: GST, N-terminal, …
Kind of assay: NMR titration; 15N-HSQC spectra of 0.05–0.10 mM 15N-EZH2 SRM-SANT1 with increasing concentrations of histone peptide; 25 °C; Kd from normalized CSPs, one-site model accounting for ligand depletion, averaged over significantly perturbed residues. The following applies: both partners purified.

Assay [2] addresses T1, EZH2 SRM-SANT1 (residues 141–251). Nature of the assay: pull-down; 1 μg purified untagged SRM-SANT1 with 1 μg biotin-tagged H4 peptide overnight at 4 °C in 150 mM NaCl, 50 mM Tris (pH 6.5), 3 mM DTT; captured on streptavidin sepharose, four washes, coomassie staining; triplicates quantified with ImageJ. The following applies: both partners purified.

T1 sequence (Q15910 141-251): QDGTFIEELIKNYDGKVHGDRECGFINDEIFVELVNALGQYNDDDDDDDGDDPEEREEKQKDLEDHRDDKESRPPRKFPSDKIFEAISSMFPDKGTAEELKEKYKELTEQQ

B1: unmodified histone H2B peptide (residues 1–11) (peptide, UniProt P62807 2-12, looked up)
peptide: PEPAKSAPAPK
notes: histone H2B N-terminal tail, residues 1-11; also called H2B (1–11); H2B tail; source: synthetic peptide, bought: AnaSpec (65442-1)
Regarding B1, the “fold weaker than the H4 tail” value in assay [1] is approximately 20 fold.

B2: biotinylated unmodified histone H4 peptide (residues 11–27) (peptide, UniProt P62805 12-28, looked up)
peptide: GKGGAKRHRKVLRDNIQ
modifications: biotin (end not stated)
notes: histone H4, residues 11-27; also called unmodified H4 (11–27); source: synthetic peptide, bought: EpiCypher (SKU:12-0035)
As to B2, the binding result in assay [2] is “binds”.

B3: unmodified histone H4 peptide (residues 11–21) (peptide, UniProt P62805 12-22, looked up)
peptide: GKGGAKRHRKV
notes: histone H4, residues 11-21 (holds the basic patch); also called H4(11–21); source: synthetic peptide, custom synthesized by GenScript
In the case of B3, the Kd in assay [1] is 700 ± 200 µM.

For orientation: Kd means the concentration at which binding is half-saturated. Higher therefore signals a looser complex.
